US20240084003A1 (SIMCERE ZAIMING PHARMACEUTICAL, published 2024)
One block for each binder: values may come before it.

How the values were obtained:
[1] = target: T1, human CD22-ECD-His protein (human, UniProt P20273 20-687); experiment: SPR (Biacore), antibody captured on Protein A chip, CD22-ECD-His in solution
T1 construct: Recombinant, from HEK293E cells; also called hCD22-ECD-His; human CD22-His protein; not shown: His tag
T1 sequence: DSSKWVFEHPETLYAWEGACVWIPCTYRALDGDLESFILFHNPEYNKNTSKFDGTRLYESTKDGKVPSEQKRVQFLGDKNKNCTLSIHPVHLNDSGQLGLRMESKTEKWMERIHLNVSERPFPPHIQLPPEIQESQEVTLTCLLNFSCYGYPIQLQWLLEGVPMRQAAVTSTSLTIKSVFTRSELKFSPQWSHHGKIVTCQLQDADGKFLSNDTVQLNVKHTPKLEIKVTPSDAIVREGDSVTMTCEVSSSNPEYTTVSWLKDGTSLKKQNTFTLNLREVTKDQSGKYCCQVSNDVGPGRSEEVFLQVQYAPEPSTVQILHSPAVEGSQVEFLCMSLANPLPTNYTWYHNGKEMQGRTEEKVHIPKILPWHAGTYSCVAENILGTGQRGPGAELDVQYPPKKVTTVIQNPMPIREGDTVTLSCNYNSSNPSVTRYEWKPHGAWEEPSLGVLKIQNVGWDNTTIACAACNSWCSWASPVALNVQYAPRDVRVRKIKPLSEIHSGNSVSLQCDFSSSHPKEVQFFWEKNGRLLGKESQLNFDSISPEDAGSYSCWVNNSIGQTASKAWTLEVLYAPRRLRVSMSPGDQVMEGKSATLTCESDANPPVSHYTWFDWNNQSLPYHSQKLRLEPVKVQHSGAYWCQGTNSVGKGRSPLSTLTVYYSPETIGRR
Method in brief: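 Antibody captured on Protein A chip, then human CD22-ECD-His injected for 240 s at 30 μL/min, 5 concentrations from 200 nM (1:1 dilution), dissociation up to 600 s, in HBS-EP+ at 25° C. Responses double-referenced; apparent KD and kinetic constants fitted to a Langmuir 1:1 model.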

human CD22 domain1-4-His = target: T2, human CD22 domain1-4-His (human, UniProt P20273 20-425); experiment: ELISA, plate coated with human CD22 domain1-4-His
T2 construct: also called hCD22 domain1-4-His; not shown: His tag
T2 sequence: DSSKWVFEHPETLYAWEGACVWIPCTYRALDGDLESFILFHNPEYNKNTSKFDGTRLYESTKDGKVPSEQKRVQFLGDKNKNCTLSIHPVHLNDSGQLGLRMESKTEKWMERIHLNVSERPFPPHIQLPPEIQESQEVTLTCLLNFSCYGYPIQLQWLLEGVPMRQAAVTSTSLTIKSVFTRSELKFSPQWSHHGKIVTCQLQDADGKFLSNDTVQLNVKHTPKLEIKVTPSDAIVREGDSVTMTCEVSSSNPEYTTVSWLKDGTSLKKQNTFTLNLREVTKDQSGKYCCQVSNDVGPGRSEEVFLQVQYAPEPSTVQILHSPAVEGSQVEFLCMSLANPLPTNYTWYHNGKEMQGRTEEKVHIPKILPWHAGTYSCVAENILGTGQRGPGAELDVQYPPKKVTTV

[2] = target: T3, rhesus monkey CD22-ECD-His protein (rhesus monkey, UniProt H9G1X2 18-686); experiment: SPR (Biacore), antibody captured on Protein A chip, rhesus CD22 in solution
T3 construct: extracellular domain; also called monkey CD22 protein
T3 sequence: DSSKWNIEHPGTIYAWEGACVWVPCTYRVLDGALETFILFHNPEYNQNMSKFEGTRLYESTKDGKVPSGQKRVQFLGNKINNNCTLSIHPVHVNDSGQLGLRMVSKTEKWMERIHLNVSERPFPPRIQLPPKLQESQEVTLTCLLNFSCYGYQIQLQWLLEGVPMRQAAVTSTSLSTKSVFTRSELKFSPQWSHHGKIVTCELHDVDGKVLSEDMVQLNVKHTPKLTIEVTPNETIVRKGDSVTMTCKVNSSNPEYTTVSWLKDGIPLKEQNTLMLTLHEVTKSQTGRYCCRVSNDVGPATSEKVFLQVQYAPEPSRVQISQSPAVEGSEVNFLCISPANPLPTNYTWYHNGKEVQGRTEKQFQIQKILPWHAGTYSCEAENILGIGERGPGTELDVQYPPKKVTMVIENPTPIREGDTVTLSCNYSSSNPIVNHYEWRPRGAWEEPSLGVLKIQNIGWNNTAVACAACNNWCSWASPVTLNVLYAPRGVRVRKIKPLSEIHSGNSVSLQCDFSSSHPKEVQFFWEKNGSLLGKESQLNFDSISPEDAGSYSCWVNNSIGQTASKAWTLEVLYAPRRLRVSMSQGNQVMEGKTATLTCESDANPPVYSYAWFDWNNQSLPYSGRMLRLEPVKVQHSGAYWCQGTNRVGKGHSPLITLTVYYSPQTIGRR

B2: F1.200.11 (antibody, human IgG1, kappa, V domains shown)
VH: QNQLVQSGPELKKPGETVKISCKASGYTFTTAGMQWVQKMPGKGFKWIGWINTLSGEPKYAEDFKGRFAFSLETSATTAYLQISNLKNEDTATYFCARAYYSNLYWYFDVWGTGTTVTVSS
VL: DIVMTQSQKFMSTTVGDRVTITCKASQNVVTAVAWYQQKPGQSPKVLIYSASNRYSGVPDRFTGSGSGTDFTLTISNMHSEDLANYFCHQYSSYPFTFGSGTKLEIKR
notes: Chimeric IgG1 kappa
- Kd [1]: 102 nM
- koff [1]: 0.00102 s⁻¹
- kon [1]: 9980 M⁻¹ s⁻¹
- binding result (human CD22 domain1-4-His): no binding
- Kd [2]: 44.2 nM
- koff [2]: 0.000596 s⁻¹
- kon [2]: 13500 M⁻¹ s⁻¹

B3: F1.105.11 (antibody, human IgG1, kappa, V domains shown)
VH: EVQLQQSGPVLVKPGASVKMSCKASGYTFSDYFMNWVKQSHGKSLEWIGIINSYSGGTSYNQKFKGKATLTVDKSSSTAYMELNSLTSEDSAVYYCARWMDYWGQGTSVTVSS
VL: DVQITQSPSYLAASPGETITINCRTSESISKHLAWYQEKPGKTNKLLIYSGSTLQSGIPSRFSGSGSGTDFTLTISSLEPEDFAMYYCQQHNEYPWTFGGGTKLEIKR
notes: Chimeric IgG1 kappa
- Kd [1]: 0.514 nM
- koff [1]: 0.000154 s⁻¹
- kon [1]: 299000 M⁻¹ s⁻¹
- binding result (human CD22 domain1-4-His): no binding
- Kd [2]: 17.3 nM
- koff [2]: 0.000448 s⁻¹
- kon [2]: 25900 M⁻¹ s⁻¹

B4: F1.192.1 (antibody, human IgG1, kappa, V domains shown)
VH: AVQLQQSGVELVRPGASVKLSCTGSDFNIKEDYIHWVKQRPEQGLEWIGWIDPENGDTEYASKFQGKATITADTSSNTAYLQLSSLTSEDTAVYYCATYGSLDYWGQGTTLTVSS
VL: DIKMTQSPSSMYAFLGERVTITCKASQGINSFLTWFQQKPGKSPKTLIYRANRLVDGVPSRFSGSGSGQDYSLTISSLEYEDVGIYYCLQYDEFPRTFGGGTKLEIKR
notes: Chimeric IgG1 kappa
- Kd [1]: 1.08 nM
- koff [1]: 0.000244 s⁻¹
- kon [1]: 225000 M⁻¹ s⁻¹
- binding result (human CD22 domain1-4-His): no binding
- Kd [2]: 23.1 nM
- koff [2]: 0.0016 s⁻¹
- kon [2]: 69200 M⁻¹ s⁻¹

B6: F1.60.9 (antibody, human IgG1, kappa, V domains shown)
VH: QVQLKESGPGLVAPSQSLSITCTVSGLSLNNYGVSWVRQPPGKGLEWLGVIWGDGSTNYHSALISRLSISKDNSKSQVFLKLNSLHTDDTATYYCAINWGDYWGQGTTLIVSS
VL: DIKMTQSPSSMNASLGERVTITCKASQDINSYLSWFQQKPGKSPKILIYRANRLIDGVPSRFSGSGSGQDYSLTISSLEYEDMGIYYCLQYGVFPLTFGAGTKLELKR
notes: Chimeric IgG1 kappa
- Kd [1]: 0.254 nM
- koff [1]: 7.64e-05 s⁻¹
- kon [1]: 301000 M⁻¹ s⁻¹
- binding result (human CD22 domain1-4-His): no binding

Other lines, results leading:

- Kd [1]: 22.7 nM
- koff [1]: 0.000533 s⁻¹
- kon [1]: 23500 M⁻¹ s⁻¹
- binding result (human CD22 domain1-4-His): no binding
- Kd [2]: 27.5 nM
- koff [2]: 0.000528 s⁻¹
- kon [2]: 19200 M⁻¹ s⁻¹
B1: F2.151.13 (antibody, human IgG1, lambda, V domains shown)
VH: QVHLQQPGTELMKPGASVKLSCKATGYTFRDYWLEWVKQRPGHGLEWIGEILPGSGNAYYNEKFKGKATFTADTSSNTAYMQLSSLTTEDSAIYYCARVYSNWYFDAWGKGTTVTVSS
VL: QAVVTQESALTTSPGETVTLTCRSSTGAVTTSNYANWVQEKPDHLFTGLIGGTNNQAPGVPARFSGSLIGDKAALTISGAQTEDEAIYFCALWFSNHWVFGGGTKLTVLG
notes: Chimeric IgG1 lambda

- Kd [1]: 18.4 nM
- koff [1]: 0.000155 s⁻¹
- kon [1]: 8450 M⁻¹ s⁻¹
- binding result (human CD22 domain1-4-His): no binding
B5: F2.180.16 (antibody, human IgG1, lambda, V domains shown)
VH: EVKLVESGGGLVLPGGSLKISCAASGFTFSDYYMYWIRQTPDKRLEWVAYISNTGYSTFYPDSVKGRFTVSRDNAKNTLYLQMSRLQSEDTAMYYCARHGILYAMDYWGQGTSVTVSS
VL: QPVLTQSSSASFSLGASAKLTCTLSSQYSTYTIGWYQQQPLKPPKYVMELKHDGSRHTGDGIPDRFSGSSSGADRYLSISNIQPEDEATYICGVGDTIKEQFMYVFGGGTKVTVLG
notes: Chimeric IgG1 lambda
